{"source": "paper PMC12121223", "target": "extracellular region of FGFR1 fused to the Fc fragment of human IgG1 (UniProt P11362)", "sequence (P11362 22-376)": "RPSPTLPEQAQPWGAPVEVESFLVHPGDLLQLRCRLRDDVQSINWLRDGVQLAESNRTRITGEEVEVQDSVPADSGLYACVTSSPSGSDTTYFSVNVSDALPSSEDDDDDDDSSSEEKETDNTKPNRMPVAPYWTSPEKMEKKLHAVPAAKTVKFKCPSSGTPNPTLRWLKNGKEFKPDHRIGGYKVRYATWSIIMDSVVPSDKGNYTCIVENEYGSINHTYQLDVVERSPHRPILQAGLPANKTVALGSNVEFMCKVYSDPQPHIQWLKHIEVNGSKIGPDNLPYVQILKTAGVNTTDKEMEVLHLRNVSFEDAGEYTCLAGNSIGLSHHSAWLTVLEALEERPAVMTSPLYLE", "data": [{"substance": "truncated wild-type FGF1 (Met-Ala-FGF1 21-154) (ligand)", "values": [{"measurement": "cellular uptake of fluorescently labelled FGF1WT into U2OS-R1 cells in the presence of heparin, quantitative confocal microscopy (normalized RSI)", "value": 25.2, "unit": "%"}]}]}
